# Measured values reported in the DeepSol protein solubility set.
# Test: soluble on expression in E. coli; label from the status in PepcDB or PDB records
row,Sequence,soluble on expression in E. coli
1,IIGGNEVTPHSRPYMVLLSLDRKTICAGALIAKDWVLTAAHCNLNKRSQVILGAHSITREEPTKQIMLVKKEFPYPCYDPATREGDLKLLQLTEKAKINKYVTILHLPKKGDDVKPGTMCQVAGWGRTHNSASWSDTLREVNITIIDRKVCNDRNHYNFNPVIGMNMVCAGSLRGGRDSCNGDSGSPLLCEGVFRGVTSFGLENKCGDPRGPGVYILLSKKHLNWIIMTIKGAV,soluble
2,MKLRANIIEKRGTLQVIVSYKDSNGKIRQKWKDTKLKKKGNKKRAEKIRDEFLLELESQLAMECECANPDLLFYDYLLNYLEVSKKQVAFNTYVGYKHYVHNRIYKFFYPKKIKLNRLKPYHLQDFYQYMLNDDCTANTVIHYHAFIRKALQEAVITELISTNVADKVRKPKKKQFVSQVYNQHEILKLLDILSEEKLYLVVLLTAFYGLRRSEVLGLKWSAIDFLNKKIMINHVIIENPENMSQLIKKDQTKNSSSYRTLPLVETIERALVNQAKWQQDNRILLGEDYILKDSEYVFTMEDGRLMKPQYVTHRLSKLIKKNGLKKIRFHDLRHSNASIMLDSGQNMKSIQEWLGHASYSTTANLYTHLTAGVKERAAEALENAFGFKE,not soluble
3,MGSDKIHHHHHHMPKNLYNYQEFIRLSHEGKIAFEQIDVPKNASLLTEKIDIDNHIYLVVDGYIALILNDGSQNPKIYSIQGKGTFLNYFTLLDRSNNHFNFKTLSGCSLYKYSKADMEYFLSMFPENFGFQFFIMKNQTTHIYFKSLMASSPASEKLKTTFSNMALLHGVLSDDDTVILPQAIKTSHLLSYSNLSKSCFYKDLQHLKTTNQIEKKEKSWIIHDQELYAMIQNGQTSF,not soluble
4,MSLKARPTIAEVARRAGVSPATVSRVLNGTARVSPEKVRAVLQAVEELGYAPSPLAQGLATGRSYAVGILLSDFASPFFGPILEALTLELEATPYRPIAVPGHWSLVRELEALEFLKAHRVEALVLLGTALDGEALGELGIPVLAFGQRVEGPKAWSLCLDNQQAAYEATRYLIDRGHTRIVHISSHRGGMDVRDRLLGYRKAMREAGLEARVVYGDLEEEGGYRAAAEAFRRYPDTTAIFAANDQTAFGARLYLYEQGLRVPEDVSLVGFDDIALSAYQIPPLTTVRQPIQDIGIALGRALRAVLAGEVPTLPRLELRLVERASVREVREGHHHHHH,soluble
5,MGERFYLYDDTVEAAVRFVSFVGERQRFDLALIETDRFYGKWLVLDLQSNRFAILGRDDLEEPGYIEHAYQLHEQDANDLRAFLEEYLS,not soluble
6,MGSDKIHHHHHHMRISLGPLVYCWQKQQVMAFYQQVAASQIPLVYLGEAVCSRRRELKWGDYFELARMLKQAGKEVVISTLALIEASSEYTELKRQVDNGEFMIEANDMAAVYLAKEHKLPFVCGASINNYNRASLDILHGFGMQRFVMPVELSKAWLQHVIQNKPAFEVEVFGHGYLPLAHSARCFTARHKQLTKDSCETICRQYSKGLLAQTQEMQPLLRLNGIQTQSAACLDLSSEIAAMNTMGVDVFRVSPSGTESIVRAESLIEALNMPEMALNAPIKGEQCDGYWFGEAGLTIHHAT,not soluble
7,VVQAPTQVPGFLGDSVTLPCYLQVPNMEVTHVSQLTWARHGESGSMAVFHQTQGPSYSESKRLEFVAARLGAELRDASLRMFGLRVEDEGSYTCLFVTFPQGSRSVDIWLRVLAKPQNTAEVQKVQLTGEPVPMARCVSTGGRPPAQITWHSDLGGMPQTSQVPGFLSGTVTVTSLWILVPSSQVDGKQVTCKVEHESFEKPQLLTVSLTVYY,soluble
8,SAQSQRAPDRVLCHSGQQQGLPRAAGGSVPHPRCH,soluble
9,MSEMSLIMLAAGNSTRFNTKVKKQFLRLGNDPLWLYATKNLSSFYPFKKIVVTSSNITYMKKFTKNYEFIEGGDTRAESLKKALELIDSEFVMVSDVARVLVSKNLFDRLIENLDKADCITPALKVADTTLFDNEALQREKIKLIQTPQISKTKLLKKALDQNLEFTDDSTAIAAMGGKIWFVEGEENARKLTFKEDLKKLDLPTPSFEIFTGNGFDVHEFGENRPLLLAGVQIHPTMGLKAHSDGDVLAHSLTDAILGAAGLGDIGELYPDTDMKFKNANSMELLKQAYDKVREIGFELINIDICVMAQSPKLKDFKQAMQSNIAHTLDLDEFRINVKATTTEKLGFIGRKEGMAVLSSVNLKYFDWTRL,soluble
10,SLSIELDLQLAVENEHGLPSEAEFALWLTRTITPFQAQAEVTVRIVDEAESHALNLNYRGKDKPTNVLSFPFEAPSGMEMDLLGDLVICRQVVEREAIEQNKPLQAHWAHMVVHGSLHLLGYDHIEDDEAEEMESLETEIMQEMGFTDPYLAEKE,not soluble
11,SLPVRESLQKQVKILIGLGNLGFGGYRGLYTRFTNPNGFLEPASSDLLLINERRNLSVIGAVSRTFSVPSVSGPAFQVCGYHIDLLLSDPCKSMASLGSKSLFVDRHSASLVSKRFTGGMVSGDGPNRGRISMRLRGKDHNEKSTICAYFAYRGAKRWIYLNQQRRGMGFRGLHSSLSNRLSAGNAPDVSLDNSVTDEQVRDSSDSVAAKLCTKPLKLVSGSCYLPHPDKEATGGEDAHFICAEEQALGVADGVGGWAELGIDAGYYSRELMSNSVNAIQDEPKGSIDPARVLEKAHTCTKSQGSSTACIIALTNQGLHAINLGDSGFMVVREGHTVFRSPVQQHDFNFTYQLESGRNGDLPSSGQVFTVAVAPGDVIIAGTDGLFDNLYNNEITAIVVHAVRTNIDPQVTAQKIAALARQRAQDKNRQTPFSTAAQDAGFRYYGGKLDDITVVVSYVAASKEEGKH,soluble
12,MSLRTTASEFDNFGYGVSDSLGMRDHVSARDLFVQKFRGKENEMLLCAFDGKHGATNQGHRISLVAKNMFVRNFTKELDEIKNDDEIENALRKAFLNFNKEINGILTAKKNKSFTPVPNMSKEALELNLVDDGNAGCTVSVIYIKDKKLYSANIGDIEALLCRNNGDQFLLTEKHDPTNREEFERIRASGGYVSGGGELDGQLSVSRGVGFFNFLPHTHCGPTIRRFKITNDDDMIILGSKQLWDFISYESAVDIIRKDKNDPMVAAQKLRDFAICYGATDKICVIVLTFGNREGHHHHHH,soluble
13,MNSSPKMKHDVFISFRSKDTRDNFVSHLCGCLRRKRIKTFLYDELPADERYEESLKAIEVSKISVIVFSENFGDSRWCLDEVVAILKCKEKFGQIVIPVLYHVDPLDIENQTGSFGDAFAKRRDKAEQLQEWKDSFTEAINLPGWSTAYLRYNPKLILSIKVTVVSELQDVLISGINIMITAFSTCK,soluble
14,QEGDAAKGEKEFNKCKACHMVQAPDGTDIVKGGKTGPNLYGVVGRKIASVEGFKYGDGILEVAEKNPDMVWSEADLIEYVTDPKPWLVEKTGDSAAKTKKTFKLGKNQADVVAFLAQHSPDAGAEAAPAEGAAN,soluble
15,MAHHHHHHMKIHIFLIATIYVLFSEKLIKWTTASTTQGGDTDTHPGTPPGEGSDVSQGAGQDASQGAGQDANPDPTLPKPPSPPADDTKDTGSQGDADSSSSKIEIPPLVKPENHKTIVSAMLKNYKGVKVTGTCGADFGLFLVPHIYVHVKSEDTEIELSSELAPPEMQTKFDKTQLKKFCVKDDTKKFDFIAYIYKDILVFKWKVYEEGLSKEQDVDEMKYLLPNLKQPITSIQVHSWTGTKESYILESKDYVLGEGMPEKCDAIATDCFLSGFTDIGKCFQCKLLMQEKNINDSCFKYVSSNQKELIKKQLKITAQDDEESSEYHLSESIKNLLKNIYKKNNDDNKKKELLHFENVNSALKSELLNYCNLLKEVNMNGVLKDHQLGNVQDVFNNLTKLLEEHKEENDNVLYHKMKNEALCLKNVNDWMKNKTGLLLPQLSYDLTYKNNNFTEFTQNKSYTSQNIVDKLYCNHEYCNRLKDHNNCISKINVEDQKNCALSWAFASKYHLETIKCMKGYEPLNASVLYVTNCLKNKNKDVCTEGSNPLVFLETIEEKGFLPTESNYPYDQSKVGDICPQLQNDWDNVFENTKVLDYNNGPFSVGTKGYIAYESEAFQKDMHSFVKLVKDEIMNKGSVIAYVKAENVLGYELNGKKVQNLCGDKTPDHVVNIVGYGNYINNKGEKKSYWIVRNSWGKYWGDDGYFKVDMYGPSTCEDNFIHTVVVFNVQVPINEKFDKKEHDIYNYYLKTSPEFYHNLYYKTFNS,not soluble
16,MGSDKIHHHHHHMVRLWLMYKNKEEQANMQVEKDVIYDSAYNLAADLYVPDEANGGAIVYAHGGGWFRGDKENESDLGKYFADAGYLFTIPNFRLAPKYLYPTAQNDFDHFINWLLASPYDFDRERLGLLGASSGGTMVLQNSLASGYPLVAWSPVVDFANWVQKNQMVKASVDGKKELGLTEIHEIHDSFYKYFVQTYLGGLDPRLLTAVNPTNHLTDQLGPALLFNSADELMPLPSALHFLQQAAMFGRDIGLHVVPGTGHARDYTSFALPETKRFFDHHLFTTVEDKTLNKATD,not soluble
17,MGSDKIHHHHHHMVWRDLLEVIYKLDPKPGLGLEIAKHVQPKHLGIIAYLALSCDNLGEALIRYHDFHRLIYDGSPLVVELQGRYGSIRWEATELHPTQLTDEIAIALVIQFLRLFMSHEDVQLHEVRFLNAAPKNIRVYEQYFQCPVRFSQPRTELLIPITEIHKPLSSADHTLQQLLVQQAQALLEQLPNSTQLDQRLQHSILTGLQKNQYQIEYIAAQLGLSVRQLQRHLQQQSTTFQERVQQVRFMLATEYLKDPHLSLQEIALLLCYSEQSAFQRAFKHWTKQTPQQWRDQFLDKE,not soluble
18,MGSDKIHHHHHHMSGKLTVITGPMYSGKTTELLSFVEIYKLGKKKVAVFKPKIDSRYHSTMIVSHSGNGVEAHVIERPEEMRKYIEEDTRGVFIDEVQFFNPSLFEVVKDLLDRGIDVFCAGLDLTHKQNPFETTALLLSLADTVIKKKAVCHRCGEYNATLTLKVAGGEEEIDVGGQEKYIAVCRDCYNTLKKRV,not soluble
19,MSNRNLRSSTNSEFSEGQHQTPSSDSSGHGEDQPQASPGPNKKSHTPKKNISKGAVLHEKPMTVMVLTATEPFNYKEGKENMFHATVATESKYYRVKVFNMDLKEKFTENQFITISKYFNSSGILEINETATVSEAAPNQMFEVPKNIIRSAKETLKISKIKELDSGTLIYGVFAVEKKKVNDKSITFKIKDNEDNIKVVWDKEQHNINYEKGDKLQLFSFHLRKGNGKPILHSGNHSFIKGEKLLKESFEGDGYHKGPKQVVALKATKLFTYDSIKSKKMFHATVATDTEFFRVMVFEENLEKKFIPGNTIALSDYFGMYGSLAIHEYSSVSEVKSQNKEDSSSSDERPIEHLKICDLHLQTEERLVDGEFKVYRKSSGNNCICYGIWDDTGAMKVVVSGQLTSVNCEIGNTIRLVCFELTSNADEWFLRATRYSYMEVIMPEK,not soluble
20,MSLSDELAKLVVEVTSPDGNIKAKLVAGEQLTVAFRPGTYARYDERGLEHQLSRLAMLAWTGYRRGFFEAKGRAEDISAKDAEKEHLNHWDANTRRYNEEMAQIVARGKSSGNVIRAQAKGLAFWKVEIRDGTLASMDEATFCAECVSVLAAVQRDSKNQEILLKDFYFGLNIPKSWRKKNPLRIERGVMD,not soluble
21,MPMAKPLKYPVSALVVLYSGDGGILLIERTHPEGFWQSVTGSLEPGETVAQTARREVWEETGILLADGQLQDWHDSTVYEIYHHWRHRYPKGVFENREHLFSAEIPRDTPIALQPEEHVSYGWFDMEEAAEKVFSPSNRRAILELGRFLGKR,not soluble
22,MLPLPLIANGKGFIRALENDGALAVYAPLEGGYEGRYQRRLRANGYASISLSARGLGDVEAYLMQVHGVRPAHLGKKNIAQEGAVGPIYFAQPIAGYQLENLPAQSKGLVLWILEGYILSQTEIQDLISLTKRVPKLKVVLEMGGDRVFRWQPLLDCLQAALEHHHHHH,soluble
